Reference: the nanobody polyreactivity screen of Harvey et al. (2022)

assay: yeast display, Sf9 membrane polyspecificity reagent, FACS + sequencing; frameworks hold sequencing errors
Procedure, shortened: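 Sorting gates, low and high (top ~1%), were placed on anti-HA fluorescence to track expression and on streptavidin fluorescence to track reagent binding. A clone's polyreactivity label is taken from the gate it came out of. The reagent was 10% biotinylated, detergent-solubilized Sf9 membrane, applied for 1 hour at 4 °C to galactose-induced yeast display cells.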

Row | Sequence | polyreactivity (PSR sort gate)
1 | QVQLVESGGGLVQAGGSLRLSCAASGRIFGHYAMGWYRHAPGKERELVAAINWRGGSTYYADSVKGRFTISRDNAKNTVYVQMKSLKPEETGVYYCAADWTKARDSIYDYWGQGSQVTVSS | low polyreactivity
2 | QVQLVESGGGLVQAGGSLRLSCAASGFIFRYYAMGWYRQAPGKERELDAAISGSGGSTYYADSVKGRFTISRDNAKNTVYLQMNSLKPEDTAVYYCAKSYGSHRKIRTSFGYWGQGTQVTVSS | high polyreactivity
3 | QVQLVESGGGLVQAGGSLRLSCAASGLILYFNARGWYRQAPGKERELVADISSSGSSTYYADSVKGRFTISRDNAKNTVYLQMNSLKPEDTAVYYCAAGYYGEYWRSWYDYWGQGTQVTVSS | low polyreactivity
4 | QVQLVESGGGLVQAGGSLRLSCAASGSIFNWYAMGWYRQARGKERELVAAISYSGTRTYYADSVKGRFTISRDNAKNTVNLQLNSLKPEDTAVYYCNRAYYTRWYTKFDYWGQGTQVTVSS | high polyreactivity
5 | QVQLVESGGGLVQAGGSLRLSCAASGRTFRQYAMGWYRQAPGKERELVATISSGGSTYYADSVKGRFTISRDNAKNTVYLLMNSLKPEDTAVYYCAAPYWARKYWRKFGPFDYWGQGTQVTVSS | low polyreactivity
6 | QVQLVETGGGLVQAGGSLRLSCPASGRTFAKYAMGRYRQAPGKERELVAAISDSGGSTYYEDSVKGRFTISRDNAKNTVYLQMNSLKPEDTAVYYCAADGRYTYYWGQGTQVTVSS | high polyreactivity
7 | QVQLVESGGGLVQAGGSLRLSCAASGSIFTWNGMGWYRQAPGKERELVAAISNGASTNYADSVKGRFTISRDNAKNTVYLQMNSLYPEDTAVYYCAAKSTGRYDYWGQGTQVTVSS | low polyreactivity
8 | QVQLVESGGGLVQAGGSLRLSCAASGFIFLAYTMGWYRQAPGKERELVAAISTSGGSTYYEDSVKGRFTISRDNAKNTVYLQMNSLKPEDTAVYYCAARYRWGRYDYWGQGTQVTVSS | high polyreactivity
9 | QVQLVESGGGLVQAGGTLRLSCAPSGRIFGIYDMGWYRQAPGKERELVADIDVSDGSTYYADSVKGRFTISRDNAKNTVYLQMNSMKPEDTAVYYCNAEDSSRWYDWYLHDYWGQGTQVTVSS | high polyreactivity
10 | QVQLVESGGGLVQAGGSLRLSCAASGSTFAANAMGWYRPAPGKERELVAAITSSGGSTYYADSVKGRFTISRDNAKNTVYLQMNSLKPEDTAVYYCNKDIERYVRIYDSWGQGTQVTVSS | low polyreactivity
11 | QVQLVESGGGLVQAGGSLRLSCAASGFIFPRYAMGWYRQAPGKERELVAAISYSGGSTYYADSVKGRFTISRDNAKNTVYLQMNSLKPEDTAVYYCAARLFKDSWMDYWGQGTQVTVSS | high polyreactivity
12 | QVQLVESGGGLVQAGGSLRLSCAASGSIFGYYAMGWYRQAPGKERELVAAITRVSSTNYADSVKGRFTISRDNAKYTVYLHMNSLKPEDTAVYYCAARTLRYYQGNTWGDDYWGQGTQVTVSS | high polyreactivity
13 | QFQLVESGGGLVQAGGSLRLSCAASGVSNALGWYRQAPGKERELVAAISRSGGSTYYADSVKGRFTISRANAKNTVNLQMNSLKPEDTAVYYCAVGYTYVYRYSSHKYDYWGEGTQVTVSS | high polyreactivity
14 | QVQLVESGGGLVQAGGSHRLSCAASGRTFRINAMGWYRQAPGKERELVAAISRSGGSTYYADSVKGRFTISRDNAKNTVYLQMTSVKPEDTAVYYCAARPYYTWRYLPTKSGDYWGQGTLVTVSS | low polyreactivity
15 | QDHLVESGGGLVQAGGSLSLSCAASGIIFYGNAMGLSRQAHGKDRELVAAISWSGSSTYYADSVKGRFTISRDNAKNTVYLQMNSLKPEDNAVYYCNKATSSVRYLKYYYWGQGTQVTVSS | high polyreactivity
16 | QVQLVDSRGGLVQAGGSLRLSCAASGIIFGYYAMGWYRQAPGKERELVAAITWSGGSTYYADSVKGSFTISRDNAKNTVYLQMNSLKPEDTAVYYCAASAYVQPYDYWGQGTQVTVSS | high polyreactivity
17 | HVQLVESGGGLVQAGGSLRLSCAASGIIFIGNAMGWYSQAPGKERELVAAISRRGGRTYYADSVKGRFTISRDNAKNTVYLQMNSLKPEDTAVYYCNAEISVNDDDYWGQGTQVTVSS | high polyreactivity
18 | QVQLVESGGGLVQAGGSLRLSCAASGRTFWRNAMGWYRQAPGKERELVAAISSSGDRTYYADSVKGRFTISRDNAKNTVYLQMNSLKPEDTAVYYCAARTFWGAYDYWGQGTQVTVSS | high polyreactivity
19 | QVQLVESGGGLVQAGGSLRLSCAASGSTFAVNAMGWYRQAPGKERELVAAISDSDGSTFYADSVKGRFTISRDNAKNTVYLQMNSLKPEDTAVYYCAATVYRVFRYSYLYYYWGQGTQVTVSS | low polyreactivity
20 | QVQLVESGGGLVQAGGSLRLSCAASGITFNYNAMGWYRQAPGKERELVARITWSGTRTYYADSVKGRFTISRDNSKNTVYFQMNSLKPEDTAVYYCNAGPYARYYWGQGTQVTVSS | high polyreactivity
21 | QVQLVESGGRLVQAGGSLRLSCAASGIIFKGYDMGWYRQEHGKVRELVAGITWIVGSTYADSVKGRFTISRDNAKNTVYLQMNSLKPEDTAVYYCNADPELTGYRFLCAEGVEYWGEGTQVTVSS | low polyreactivity
22 | QVQLVESGGGLVQAGGSLRLSCAASGSTFYRYAMGWYRPAPGKERELVAAISSSGGSTYYADSVKGRFTISRDNAKNTVYLQMNSLKPEDTAVYYGNADVHSQYDYWGQGTQVTVSS | low polyreactivity

Row | Sequence | polyreactivity (PSR sort gate)
23 | QVQLVESGGGLVQAGGSLRLSCAASGSIFSYNMGWYRQAPGKEREFVAAISSGGSTYYADSVKGRFTISRDNAKNTVYLQMNSLKPEDTAVYYCNRVRRGVWRQDDYWGQGTQVTVSS | high polyreactivity
24 | QVLLVESGGGLVQAGGSLRISCAASGRISSRNAMGWYRQAPGKERELVAGITSGGSTNYADSLKGRFTISRDNAKNTVYLQMNSLKPEDTAVYYCAKRSRTYRYGYDYWGQGTQVTVSS | high polyreactivity
25 | QVQLVESGGGIVQAGGSLRLSCAASGRIFVLNAMGWYRQAPGKERELVAAISKSAGSTYYADSVKGRFTISRDNAKNTVYLQMNSLKPEDTAVYYCNVGRRGHYLDAYDYWGQGTQVTVSS | high polyreactivity
26 | QDQLVESGGGLVQAGGSLRLSCAASGIIFYVYAMGWYRLAPGKERELVAAISRSGGRTYYADSVKGRFTISRDNAKNTVYFQMNSLKPEDTAVYYCAADAYRTPTHYYWGQGTQVTVSS | high polyreactivity
27 | QVQLVESVGGLVQAGGSLRLSCAASGSTFVIYAMGWYRQAHGKERELVAAISGRTGSTYYADSVKGRFTISRDNAKNTVYLQMNSLKPEDTAVYYCAAYKRSGLKYGHWGQGTQVTVSS | high polyreactivity
28 | QVQLVESGGGLVQAGGSLRLSCAASGRTFSGYAMGWYRQAPGKEREFVAAISRSGGSTYYADSVKGRFTISRDNAKNTVYLQMNSLKPEDIAVYYCAAQIWYSKRLAYKAYDYWGQGTQVTVSS | high polyreactivity
29 | QVQLVESGGGLVQAGGSLRLSCAASGFIFRYYAMGWYRQAPGKERELVAAISGSGGSTYYADSVKGRFTISRDNAKNTVYLQMNSLKPEDTAVYYCAAYYYGYEYWGQGTQVTVSS | high polyreactivity
30 | QVQLVESGGGLVQAGGSLRLSCAASGRIFDIYAMGWYRQAPGKERELVAAITRGGSTYADSVKGRFTISRDNAKNTVYLQMNSLKPEDTAVYYCAARPRLPRQIGGDGHLDDYWGQGTQVTVSS | high polyreactivity
31 | QVQLVESGGGVVQAGGSLRLSCAASGSIFLYIYAKGWYRHAPGKERELVATINWDGGSTYYADSVKGRFTISRDNAKNTVYLQMNSLKPEDTAVYYCAADWYYSYYFYRFDYWGQGTQVTVSS | low polyreactivity
32 | QVQLVESGGGLVQAGGSLRLSCAASGSIFITYVMGWSRQAPGKERELVAGISRSGGSTYYADSVKGRFTISRYNAKNTVYLQMNSLKPEDTAVYYCAAFFLRRPGSSGLRLLGQGTQVTVSS | high polyreactivity
33 | QVQLVESGGGLVQAGGSLRLSCAASGSTFWWYAMGWYRPAPGKERELVARISNGGGTNYADSGKGRFTISRDNEKNSVFLQMNSLIPEDTAVYYCAATVGVAYYENDYWGQGTQVTVSS | low polyreactivity
34 | QVQLVESGGGLVQAGGSLRLSCAASGIIFHYYAMGWYRQAPGKERDLVAAISGSGGSTYYADSVKGRFTISRDNAKNTVFLQMNSLKPEDTAVYYCAAILWGGGGYWGQGTQVTVSS | high polyreactivity
35 | QVQLVESGGGLVQAGGSLRLSCAASGYTFLVNAMGWYRQAPGKERELVAAISSGGSTYYADSVKGRFTISRDNAKNTVYLQMNSLKPEDTAVYYCAAPTDFLFWEFDYWGQGTQVTVSS | low polyreactivity
36 | QVQLVESGGGLVQAGGSLRLSCAASGRTFSSYAKGWYRQAPGKERELVAAITSGGSTYYADSVKGRFTISRDNAKNTVYLQMNSLKPDDTAVYYCAAEQHGYYWHSWNRYIFYYWGQGTQVTVSS | high polyreactivity
37 | QVQLVESGGGLVQAGGSLRLSCAASGNTFKYYAMGWYRQAPGKERELVATISRTAGSTYYADSVKGRFTISRDNAKNTVYLQMNSLKPDDTAVYYCNKDRGHPFKYDYWGQGTQVTVSS | low polyreactivity
38 | QVQLVESGGGLVQAGGSLRLSCAASGFIVVFNAMGWYRQAPGKERELVAAINGGDITNYADSVKGRFTISRDNAKNTVYLQMNSLKPEDTAVYYCAADGEDSMWTGYDYDYWGQGTQVTVSS | low polyreactivity
39 | QVQLGESGGGLVQAGGSLRLSCAASGSIFYGYAMGWYRHAPGKERELVAAITRDGSTNYADSVKGRFTISLDNAKNTVYLQMNSLKPEDTAVYYCAADTRSRRLSLVRRDYWGQGTQVTVSS | high polyreactivity
40 | QVQLVESGGGLVQAGGSLRLSCAASGIPFEGYAMGWYRQAPGKERELVAAIRSSGTSTYYADSVKGRFTISRDTAKNTVYLQMNSLKPEDTAVYYCNRARSSSRYDYWGQGTQVTVSS | low polyreactivity
41 | QVQLVESGGGLVQAGGSLRLSCAASGGTFVYNAMGWYRQAPGKERELVAAIRVRGDTTYYADSVKGRFTISRDNAKYTVYLQMNSLKPEDTAVYYCAAYPDYSYYYWGQGTQVTVSS | high polyreactivity
42 | QVQLVESGGGLVQAGGSLRLSCADSGITFDANTMGWYRQAPGKERELVAVITDTGSTNYADSVKGRFTISRDNAKNTVYLQMNSLKPEDTAVYYCNADAEPSSGTSANNDYWGQGTQVTVSS | low polyreactivity
43 | QVQLVESGGGLVQAGGSLRLSCAASGSIFVWYAMGWYRQAPGKERELVARITSGGRTNYADSVKGRFTISRDNAKNTVYLQMNSLKPEDTAVYYCAAGRVSWSAYYYWGQGSQVTVSS | high polyreactivity
